# From PMC7565527, “Cryo-EM Structure of Heterologous Protein Complex Loaded Thermotoga Maritima Encapsulin Capsid” (Biomolecules, 2020)
# B1: Thermotoga maritima encapsulin capsid protein, C-terminus His-tagged (natural protein)
# chain: MEFLKRSFAPLTEKQWQEIDNRAREIFKTQLYGRKFVDVEGPYGWEYAAHPLGEVEVLSDENEVVKWGLRKSLPLIELRATFTLDLWELDNLERGKPNVDLSSLEETVRKVAEFEDEVIFRGCEKSGVKGLLSFEERKIECGSTPKDLLEAIVRALSIFSKDGIEGPYTLVINTDRWINFLKEEAGHYPLEKRVEECLRGGKIITTPRIEDALVVSERGGDFKLILGQDLSIGYEDREKDAVRLFITETFTFQVVNPEALILLKF
# notes: T. maritima encapsulin capsid protein; gene amplified from pET14-GFP30-Encap (Addgene #86406); model built from PDB 3DKT; Assembles into an icosahedral shell with 12 fivefold pores; its symmetry expansion ('the other expanded 59 sets') implies 60; also called encapsulin shell; source: insect cells (baculovirus, pFastBac1), coexpressed with cargo, purified (Ni-NTA, Superdex 200); not shown: His …
# Molecular target: the molecule itself
# Assay: cryo-EM structure; Encap/IDM complex coexpressed in insect cells, purified by Ni-NTA and Superdex 200; icosahedral reconstruction of the encapsulin shell at 2.87 Å, C1 reconstruction at 4.29 Å
protein,measurement,value
B1,binding result,binds
